This note sets out measurements from paper PMC3169398, “Structures of phosphopantetheine adenylyltransferase from Burkholderia pseudomallei” (Acta Crystallographica Section F: Structural Biology and …, 2011).

The data set concerns the molecule itself. The data set is described as follows: crystal structure.

For orientation: stoichiometry N means a count of units in the complex or per binding partner.

B1: Phosphopantetheine adenylyltransferase from B. pseudomallei strain 1710b, tag removed (GPGS-ORF) (enzyme)
chain: MVVAVYPGTFDPLTRGHEDLVRRASSIFDTLVVGVADSRAKKPFFSLEERLKIANEVLGHYPNVKVMGFTGLLKDFVRANDARVIVRGLRAVSDFEYEFQMAGMNRYLLPDVETMFMTPSDQYQFISGTIVREIAQLGGDVSKFVFPSVEKWLTEKVAAMAQGPSA
notes: also called Bp PPAT; PPAT
For the protein B1, the “stoichiometry N” value worked out at 6.

B2: Phosphopantetheine adenylyltransferase from B. pseudomallei strain 1710b, with the full-length expression tag (…-ORF) (enzyme)
chain: MVVAVYPGTFDPLTRGHEDLVRRASSIFDTLVVGVADSRAKKPFFSLEERLKIANEVLGHYPNVKVMGFTGLLKDFVRANDARVIVRGLRAVSDFEYEFQMAGMNRYLLPDVETMFMTPSDQYQFISGTIVREIAQLGGDVSKFVFPSVEKWLTEKVAAMAQGPSA
notes: also called Bp PPAT; PPAT
Consider B2, for which the “stoichiometry N” value was determined as 6.
